Data published in patent US20260166084A1 (published 2026).

What was measured:
[1] = molecular target: complex formed between CRBN/DDB1 and iberdomide (UniProt Q96SW2 1-442; Q16531 2-1140); test: TR-FRET displacement; iberdomide
[2] = molecular target: complex formed between CRBN/DDB1 and lenalidomide (UniProt Q96SW2 1-442; Q16531 2-1140); test: TR-FRET displacement; lenalidomide
[3] = molecular target: complex formed between CRBN/DDB1 and pomalidomide (UniProt Q96SW2 1-442; Q16531 2-1140); test: TR-FRET displacement; pomalidomide
complex formed between CRBN/DDB1 and pomalidomide, sequence (Q96SW2 whole entry, chain 1 of 2): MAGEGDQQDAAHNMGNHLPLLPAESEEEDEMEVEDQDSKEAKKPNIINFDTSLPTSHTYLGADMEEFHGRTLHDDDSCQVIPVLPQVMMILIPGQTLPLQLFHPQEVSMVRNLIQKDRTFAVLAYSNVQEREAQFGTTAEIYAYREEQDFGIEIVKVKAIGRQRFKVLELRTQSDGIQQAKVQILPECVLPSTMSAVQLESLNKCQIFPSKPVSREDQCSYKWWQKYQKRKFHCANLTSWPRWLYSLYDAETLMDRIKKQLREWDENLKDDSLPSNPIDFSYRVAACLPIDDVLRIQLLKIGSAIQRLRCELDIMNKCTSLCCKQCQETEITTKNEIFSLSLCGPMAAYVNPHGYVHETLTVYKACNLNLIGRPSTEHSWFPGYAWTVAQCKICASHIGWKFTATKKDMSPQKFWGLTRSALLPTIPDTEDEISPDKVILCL
complex formed between CRBN/DDB1 and pomalidomide, sequence (Q16531 2-1140, chain 2 of 2): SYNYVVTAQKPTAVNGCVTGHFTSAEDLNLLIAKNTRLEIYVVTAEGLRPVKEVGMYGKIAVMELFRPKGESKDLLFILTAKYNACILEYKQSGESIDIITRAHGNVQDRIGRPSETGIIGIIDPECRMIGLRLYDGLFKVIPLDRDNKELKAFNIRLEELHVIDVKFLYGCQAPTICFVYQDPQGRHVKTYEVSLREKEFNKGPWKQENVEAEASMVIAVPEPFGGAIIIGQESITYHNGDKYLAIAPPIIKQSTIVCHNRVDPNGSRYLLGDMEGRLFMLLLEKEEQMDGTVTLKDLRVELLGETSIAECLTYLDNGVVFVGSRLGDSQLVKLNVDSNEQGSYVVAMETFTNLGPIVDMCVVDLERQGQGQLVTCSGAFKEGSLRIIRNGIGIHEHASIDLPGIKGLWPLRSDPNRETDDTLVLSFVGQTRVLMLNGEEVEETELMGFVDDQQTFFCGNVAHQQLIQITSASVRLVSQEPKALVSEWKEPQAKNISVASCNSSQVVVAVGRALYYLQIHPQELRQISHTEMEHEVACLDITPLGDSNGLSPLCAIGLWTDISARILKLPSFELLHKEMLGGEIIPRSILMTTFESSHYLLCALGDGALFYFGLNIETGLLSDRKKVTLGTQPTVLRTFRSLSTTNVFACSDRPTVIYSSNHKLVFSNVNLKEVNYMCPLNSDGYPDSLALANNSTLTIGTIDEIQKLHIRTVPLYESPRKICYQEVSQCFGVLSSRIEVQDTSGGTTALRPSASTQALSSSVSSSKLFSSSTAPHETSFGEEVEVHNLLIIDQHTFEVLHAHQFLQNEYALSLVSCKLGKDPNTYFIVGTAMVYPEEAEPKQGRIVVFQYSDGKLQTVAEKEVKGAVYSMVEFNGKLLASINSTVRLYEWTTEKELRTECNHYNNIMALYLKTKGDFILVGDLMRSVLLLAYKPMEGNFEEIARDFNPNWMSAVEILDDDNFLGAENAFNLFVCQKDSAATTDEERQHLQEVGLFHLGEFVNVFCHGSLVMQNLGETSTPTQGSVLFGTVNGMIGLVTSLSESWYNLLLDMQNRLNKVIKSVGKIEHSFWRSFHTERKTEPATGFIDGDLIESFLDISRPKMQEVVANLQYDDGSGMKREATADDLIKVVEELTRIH

complex formed between CRBN/DDB1 and lenalidomide, sequence (Q96SW2 whole entry, chain 1 of 2): as the sequence (Q96SW2 whole entry, chain 1 of 2) above
complex formed between CRBN/DDB1 and lenalidomide, sequence (Q16531 2-1140, chain 2 of 2): as the sequence (Q16531 2-1140, chain 2 of 2) above
complex formed between CRBN/DDB1 and iberdomide, sequence (Q96SW2 whole entry, chain 1 of 2): as the sequence (Q96SW2 whole entry, chain 1 of 2) above
complex formed between CRBN/DDB1 and iberdomide, sequence (Q16531 2-1140, chain 2 of 2): as the sequence (Q16531 2-1140, chain 2 of 2) above

Row | Binder | IC50 [1] [nM] | IC50 [2] [nM] | IC50 [3] [nM]
1 | iTAG1 (DCD23) (designed binder) PNVLMVHKRSHTGERPLQCEICGFTCRQKGNLLRHIKLHSGEKPFKCHLCNYACRRRDAL | 36.4 | 78.7 | 49.8
2 | iTAG2 (DCD23mut) (designed binder) PNVLMVHNESHTGEIPLQCEICGFTCEQAGNLLNHIELHSGEIPFKCHLCNYACRRRDAL | 556 | 860 | 834
